“And” between values parts separate entries of the source, which are not always exact repeats. Equal entries are not always repeated.

Two molecules from paper PMC9499943 (2022) can be followed below.

Experiment [1] has as its target T1, His-tagged RBD (RBD-His) protein of SARS-CoV-2 (SARS-CoV-2, UniProt P0DTC2 319-541). Nature of the experiment: BLI. (In BLI a coated tip is dipped into the sample, and binding shifts an interference pattern.)
The target in experiment [2] is T1, His-tagged RBD (RBD-His) protein of …. The experiment can be described thus: BLI. This is another data set of the same source.

B1: CoV2-06 (antibody, V domains shown)
VH: QVELQESGPGLVKPSGTLSLTCAVSGGSISSNNWWTWVRQPPGKGLEWIGEIHHSGGTNYNPSLKSRVTMSVDKSKNQFSLNLYSVTAADTAVYYCTRDRAGGTYSGFDFWGQGTLVTVSS
VL: QAVVTQPASVSGSPGQSITISCTGTSSDVGGYNYVSWYQQHPGKAPKLMIYDVSNRPSGVSNRFSGSKSGNTASLTISGLQAEDEADYYCSSYTSSSTVVFGGGTKVTVL
As a reminder, the Kd is the free concentration of one partner at which half of the binding sites on the other are occupied at equilibrium, for simple one-to-one binding. Low readings indicate a tighter complex, high ones a looser complex. Consider B1, for which the Kd in experiment [1] was 270 pM and 90 pM.

B2: CoV2-14 (antibody, V domains shown)
VH: EVQLQQSGPGLVKPSQTLSLTCAISGDSVSSNSAAWNWIRQSPSRGLEWLGRTYYRSKWYNDYAVSVKSRITINPDTSKNQFSLQLNSVTPEDTAVYYCAREEQQLVHDYYYYGMDVWGQGTMVTVSS
VL: QAVVTQPASVSGSPGQSITISCTGTSSDIGAYNYISWYQQHPGKAPKLIIYEVSNRPSGISYRFSGSKSGNTASLTISGLQAEDEANYYCSSYAGSISFGGGTKVTVL
By koff is commonly meant the rate constant with which the complex falls apart. A higher koff goes with a short-lived complex. Turning to B2, in experiment [2], the koff is 0.000222 s⁻¹ and 0.000552 s⁻¹. In addition, in experiment [1], the Kd was 620 pM and 580 pM.
